Sequences and labels used below:
T1: human calcitonin receptor (human, UniProt P30988 25-474)
T1 construct: whole, on cells; also called hCTR; hCT
T1 sequence (looked up): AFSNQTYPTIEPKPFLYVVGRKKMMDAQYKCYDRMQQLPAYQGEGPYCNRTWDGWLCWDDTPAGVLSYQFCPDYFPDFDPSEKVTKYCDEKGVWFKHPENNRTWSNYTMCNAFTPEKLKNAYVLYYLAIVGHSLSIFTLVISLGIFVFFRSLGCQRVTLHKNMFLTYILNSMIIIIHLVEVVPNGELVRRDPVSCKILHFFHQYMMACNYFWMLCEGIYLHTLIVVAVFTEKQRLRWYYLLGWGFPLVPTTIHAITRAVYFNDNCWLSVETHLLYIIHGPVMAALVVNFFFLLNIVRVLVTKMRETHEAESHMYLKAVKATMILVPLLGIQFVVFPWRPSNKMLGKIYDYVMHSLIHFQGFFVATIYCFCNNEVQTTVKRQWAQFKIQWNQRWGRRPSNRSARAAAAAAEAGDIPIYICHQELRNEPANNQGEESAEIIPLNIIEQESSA

B1: N^ε1-[(4S)-4-carboxy-4-(15-carboxypentadecanoylamino)butanoyl]-[Arg17,Pro21,Pro27,His34]-h-amylin (peptide)
peptide: K([γGlu-C16 diacid])CNTATCATQRLANFLRHSSPNFGAIPSSTNVGHNTY-NH2
modifications: disulfide 2-7; N-terminus assumed
SMILES: CC[C@H](C)[C@H](NC(=O)[C@H](C)NC(=O)CNC(=O)[C@H](Cc1ccccc1)NC(=O)[C@H](CC(N)=O)NC(=O)[C@@H]1CCCN1C(=O)[C@H](CO)NC(=O)[C@H](CO)NC(=O)[C@H](Cc1c[nH]cn1)NC(=O)[C@H](CCCNC(=N)N)NC(=O)[C@H](CC(C)C)NC(=O)[C@H](Cc1ccccc1)NC(=O)[C@H](CC(N)=O)NC(=O)[C@H](C)NC(=O)[C@H](CC(C)C)NC(=O)[C@H](CCCNC(=N)N)NC(=O)[C@H](CCC(N)=O)NC(=O)[C@@H](NC(=O)[C@H](C)NC(=O)[C@@H]1CSSC[C@H](NC(=O)[C@@H](N)CCCCNC(=O)CC[C@H](NC(=O)CCCCCCCCCCCCCCC(=O)O)C(=O)O)C(=O)N[C@@H](CC(N)=O)C(=O)N[C@@H]([C@@H](C)O)C(=O)N[C@@H](C)C(=O)N[C@@H]([C@@H](C)O)C(=O)N1)[C@@H](C)O)C(=O)N1CCC[C@H]1C(=O)N[C@@H](CO)C(=O)N[C@@H](CO)C(=O)N[C@H](C(=O)N[C@@H](CC(N)=O)C(=O)N[C@H](C(=O)NCC(=O)N[C@@H](Cc1c[nH]cn1)C(=O)N[C@@H](CC(N)=O)C(=O)N[C@H](C(=O)N[C@@H](Cc1ccc(O)cc1)C(N)=O)[C@@H](C)O)C(C)C)[C@@H](C)O
B2: N^ε1-[(4S)-4-carboxy-4-(13-carboxytridecanoylamino)butanoyl]-[Arg17,Pro21,Pro27,His34]-h-amylin (peptide)
peptide: K([γGlu-C14 diacid])CNTATCATQRLANFLRHSSPNFGAIPSSTNVGHNTY-NH2
modifications: disulfide 2-7; N-terminus assumed
SMILES: CC[C@H](C)[C@H](NC(=O)[C@H](C)NC(=O)CNC(=O)[C@H](Cc1ccccc1)NC(=O)[C@H](CC(N)=O)NC(=O)[C@@H]1CCCN1C(=O)[C@H](CO)NC(=O)[C@H](CO)NC(=O)[C@H](Cc1c[nH]cn1)NC(=O)[C@H](CCCNC(=N)N)NC(=O)[C@H](CC(C)C)NC(=O)[C@H](Cc1ccccc1)NC(=O)[C@H](CC(N)=O)NC(=O)[C@H](C)NC(=O)[C@H](CC(C)C)NC(=O)[C@H](CCCNC(=N)N)NC(=O)[C@H](CCC(N)=O)NC(=O)[C@@H](NC(=O)[C@H](C)NC(=O)[C@@H]1CSSC[C@H](NC(=O)[C@@H](N)CCCCNC(=O)CC[C@H](NC(=O)CCCCCCCCCCCCC(=O)O)C(=O)O)C(=O)N[C@@H](CC(N)=O)C(=O)N[C@@H]([C@@H](C)O)C(=O)N[C@@H](C)C(=O)N[C@@H]([C@@H](C)O)C(=O)N1)[C@@H](C)O)C(=O)N1CCC[C@H]1C(=O)N[C@@H](CO)C(=O)N[C@@H](CO)C(=O)N[C@H](C(=O)N[C@@H](CC(N)=O)C(=O)N[C@H](C(=O)NCC(=O)N[C@@H](Cc1c[nH]cn1)C(=O)N[C@@H](CC(N)=O)C(=O)N[C@H](C(=O)N[C@@H](Cc1ccc(O)cc1)C(N)=O)[C@@H](C)O)C(C)C)[C@@H](C)O
B3: N^ε1-[(4S)-4-carboxy-4-(17-carboxyheptadecanoylamino)butanoyl]-[Arg17,Pro21,Pro27,His34]-h-amylin (peptide)
peptide: K([γGlu-C18 diacid])CNTATCATQRLANFLRHSSPNFGAIPSSTNVGHNTY-NH2
modifications: disulfide 2-7; N-terminus assumed
SMILES: CC[C@H](C)[C@H](NC(=O)[C@H](C)NC(=O)CNC(=O)[C@H](Cc1ccccc1)NC(=O)[C@H](CC(N)=O)NC(=O)[C@@H]1CCCN1C(=O)[C@H](CO)NC(=O)[C@H](CO)NC(=O)[C@H](Cc1c[nH]cn1)NC(=O)[C@H](CCCNC(=N)N)NC(=O)[C@H](CC(C)C)NC(=O)[C@H](Cc1ccccc1)NC(=O)[C@H](CC(N)=O)NC(=O)[C@H](C)NC(=O)[C@H](CC(C)C)NC(=O)[C@H](CCCNC(=N)N)NC(=O)[C@H](CCC(N)=O)NC(=O)[C@@H](NC(=O)[C@H](C)NC(=O)[C@@H]1CSSC[C@H](NC(=O)[C@@H](N)CCCCNC(=O)CC[C@H](NC(=O)CCCCCCCCCCCCCCCCC(=O)O)C(=O)O)C(=O)N[C@@H](CC(N)=O)C(=O)N[C@@H]([C@@H](C)O)C(=O)N[C@@H](C)C(=O)N[C@@H]([C@@H](C)O)C(=O)N1)[C@@H](C)O)C(=O)N1CCC[C@H]1C(=O)N[C@@H](CO)C(=O)N[C@@H](CO)C(=O)N[C@H](C(=O)N[C@@H](CC(N)=O)C(=O)N[C@H](C(=O)NCC(=O)N[C@@H](Cc1c[nH]cn1)C(=O)N[C@@H](CC(N)=O)C(=O)N[C@H](C(=O)N[C@@H](Cc1ccc(O)cc1)C(N)=O)[C@@H](C)O)C(C)C)[C@@H](C)O
B4: N^-1-[(4S)-4-carboxy-4-(19-carboxynonadecanoylamino)butanoyl]-Gly[Arg1,His14,Arg17,Pro21,Pro27,Pro34]-h-amylin (peptide)
peptide: {C20 diacid-γGlu}-GRCNTATCATQRLAHFLRHSSPNFGAIPSSTNVGPNTY-NH2
modifications: disulfide 3-8
SMILES: CC[C@H](C)[C@H](NC(=O)[C@H](C)NC(=O)CNC(=O)[C@H](Cc1ccccc1)NC(=O)[C@H](CC(N)=O)NC(=O)[C@@H]1CCCN1C(=O)[C@H](CO)NC(=O)[C@H](CO)NC(=O)[C@H](Cc1c[nH]cn1)NC(=O)[C@H](CCCNC(=N)N)NC(=O)[C@H](CC(C)C)NC(=O)[C@H](Cc1ccccc1)NC(=O)[C@H](Cc1c[nH]cn1)NC(=O)[C@H](C)NC(=O)[C@H](CC(C)C)NC(=O)[C@H](CCCNC(=N)N)NC(=O)[C@H](CCC(N)=O)NC(=O)[C@@H](NC(=O)[C@H](C)NC(=O)[C@@H]1CSSC[C@H](NC(=O)[C@H](CCCNC(=N)N)NC(=O)CNC(=O)CC[C@H](NC(=O)CCCCCCCCCCCCCCCCCCC(=O)O)C(=O)O)C(=O)N[C@@H](CC(N)=O)C(=O)N[C@@H]([C@@H](C)O)C(=O)N[C@@H](C)C(=O)N[C@@H]([C@@H](C)O)C(=O)N1)[C@@H](C)O)C(=O)N1CCC[C@H]1C(=O)N[C@@H](CO)C(=O)N[C@@H](CO)C(=O)N[C@H](C(=O)N[C@@H](CC(N)=O)C(=O)N[C@H](C(=O)NCC(=O)N1CCC[C@H]1C(=O)N[C@@H](CC(N)=O)C(=O)N[C@H](C(=O)N[C@@H](Cc1ccc(O)cc1)C(N)=O)[C@@H](C)O)C(C)C)[C@@H](C)O
B5: N{-1}-[(4S)-4-carboxy-4-(19-carboxynonadecanoylamino)butanoyl]-Gly[Arg1,His14,Arg17,Pro21,Pro27]-h-amylin (peptide)
peptide: {C20 diacid-γGlu}-GRCNTATCATQRLAHFLRHSSPNFGAIPSSTNVGSNTY-NH2
modifications: disulfide 3-8
SMILES: CC[C@H](C)[C@H](NC(=O)[C@H](C)NC(=O)CNC(=O)[C@H](Cc1ccccc1)NC(=O)[C@H](CC(N)=O)NC(=O)[C@@H]1CCCN1C(=O)[C@H](CO)NC(=O)[C@H](CO)NC(=O)[C@H](Cc1c[nH]cn1)NC(=O)[C@H](CCCNC(=N)N)NC(=O)[C@H](CC(C)C)NC(=O)[C@H](Cc1ccccc1)NC(=O)[C@H](Cc1c[nH]cn1)NC(=O)[C@H](C)NC(=O)[C@H](CC(C)C)NC(=O)[C@H](CCCNC(=N)N)NC(=O)[C@H](CCC(N)=O)NC(=O)[C@@H](NC(=O)[C@H](C)NC(=O)[C@@H]1CSSC[C@H](NC(=O)[C@H](CCCNC(=N)N)NC(=O)CNC(=O)CC[C@H](NC(=O)CCCCCCCCCCCCCCCCCCC(=O)O)C(=O)O)C(=O)N[C@@H](CC(N)=O)C(=O)N[C@@H]([C@@H](C)O)C(=O)N[C@@H](C)C(=O)N[C@@H]([C@@H](C)O)C(=O)N1)[C@@H](C)O)C(=O)N1CCC[C@H]1C(=O)N[C@@H](CO)C(=O)N[C@@H](CO)C(=O)N[C@H](C(=O)N[C@@H](CC(N)=O)C(=O)N[C@H](C(=O)NCC(=O)N[C@@H](CO)C(=O)N[C@@H](CC(N)=O)C(=O)N[C@H](C(=O)N[C@@H](Cc1ccc(O)cc1)C(N)=O)[C@@H](C)O)C(C)C)[C@@H](C)O
notes: also called compound 99

Numbered stars: 1 amine (or outer) side, 2 acyl side, 3 side chain; on linkers, the order of the positions; unused ones are H or OH. Bridge positions count the residues as written; N and C are the ends. Side chains are listed from the residue outwards. Ends that are not written are not given here. * marks the point of attachment. C20 diacid = O=C(O)CCCCCCCCCCCCCCCCCCC(=O)*; C18 diacid = O=C(O)CCCCCCCCCCCCCCCCC(=O)*; C16 diacid = O=C(O)CCCCCCCCCCCCCCC(=O)*; γGlu = O=C(O)[C@H](CCC(=O)[*:2])N[*:1]; C14 diacid = O=C(O)CCCCCCCCCCCCC(=O)*

The values that follow come from patent publication US20140087995A1 (published 2014).

The IC50 is the concentration that gives 50% inhibition.

The target in one test is T1, human calcitonin receptor. Kind of test: SPA radioligand competition (125I-calcitonin), membranes of BHK cells with human calcitonin receptor. Put shortly:
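BHK hCTR membranes 35 ng/μL + SPA beads 0.05 mg/well; buffer 50 mM Hepes pH 7.4, 1 mM CaCl2, 5 mM MgCl₂, 0.1% OA, 0.02% Tween20. 120 min, 25° C., shaking. Scintillation count; IC50 by one-site binding competition.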
Background: In a radioligand displacement assay an active substance lowers the binding of a labelled ligand.
Turning to B1, the 50% inhibitory concentration (IC50) came to 10.8 nM.

For the molecule B2, the IC50 was 24.3 nM.

On to B3, for which the IC50 stood at 22.7 nM.

For the molecule {C20 diacid-γGlu}-GRCNTATCATQRLAAFLRHSSPNFGAIPSSTNVGPNTY-NH2 (disulfide 3-8), the IC50 stood at 3 nM.

Consider B4, for which the IC50 worked out at 7.87 nM.

For the molecule B5, the concentration for half-maximal inhibition (IC50) stood at 35 nM.

In the next test the target is T1, human calcitonin receptor. Kind of test: ratio of IC50 at human calcitonin receptor to IC50 at human amylin receptor (SPA competition assays). Put shortly: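 Scintillation proximity competition binding on cell membranes at 35 ng/μL with SPA beads, in 50 mM Hepes pH 7.4, 1 mM CaCl2, 5 mM MgCl₂, 0.1% OA, 0.02% Tween20. Incubated 120 min at 25° C with shaking. IC₅₀ from one-site competition fit.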
Consider B1, for which the “Ratio hCT/hAmylin binding” value turned out to be 18.5.

Turning to B2, the “Ratio hCT/hAmylin binding” value turned out to be 23.5.

For the molecule B3, the “Ratio hCT/hAmylin binding” value came to 59.4.

Regarding {C20 diacid-γGlu}-GRCNTATCATQRLAAFLRHSSPNFGAIPSSTNVGPNTY-NH2 (disulfide 3-8), the “Ratio hCT/hAmylin binding” value worked out at 26.5.

Consider B4, for which the “Ratio hCT/hAmylin binding” value stood at 36.2.

For the molecule B5, the “Ratio hCT/hAmylin binding” value stood at 100.
